Reference: patent US6458927B1, “Polypeptide with appetite regulating activity” (Novo Nordisk A/S, priority 1997, dated 2002)

Test system: Mice
Test: Test method for measuring appetite suppression in mice (milk consumption after ICV injection)
Assay type: in vivo
Conditions: for % Feeding Suppression: food deprived, milk consumption over 10 minutes, 30 min after injection, percent reduction relative to control mean
Description: Mice were deprived of their normal feed for two days and given free access to a solution of nutritionally complete infant formula milk (Complan®) for the first day, after which food deprivation was complete for the last day before testing. After one day of food deprivation, mice were injected intra-cerebroventricularly (ICV) in the lateral ventricle with 10 microliters of a solution containing the test substance. Thirty minutes after injection, mice were individually placed in a 15×15×15 cm test box with a stainless steel grid floor and a glass drinking tube which projected into the box. The drinking tube was connected to a reservoir containing the formula milk solution, and the interior of the drinking tube contained an electrode enabling the detection of drinking contacts with the solution by measuring the flow of a weak (unnoticeable) electric current through mice by means of an electronic apparatus connected to the drinking tube electrode and the stainless steel grid floor. Consumption of the milk solution was measured over a 10 minutes period by electronically recording the total amount of contact with the milk solution during the test session. The degree of appetite suppression produced by a given test substance was determined by statistical comparison of the duration of milk consumption by control (vehicle treated) mice with that of mice treated with a test substance. The degree of appetite suppression in a treated group of mice was expressed as percent reduction of consumption relative to the mean of the control group's response.

B1: Ala-Leu-Asp-Ile-Tyr-Ser-Ala-Val-Asp-Asp-Ala-Ser-His-Glu-Lys-Glu-Leu-Ile- Glu-Ala-Leu-Gln-Glu-Val-Leu-Lys-Lys-Leu-Lys-Ser-Lys-Arg-Ile-Pro-Ile-Tyr- … (protein)
chain: ALDIYSAVDDASHEKELIEALQEVLKKLKSKRIPIYEKKYGQVPMCDAGEQCAVRKGARIGKLCDCPRGTSCNSFLLKCL
notes: recombinant rat CART fragment 10-89 from FXa digest of thioredoxin-CART fusion (E. coli)
- % Feeding Suppression (ICV dose 1 microgram): 41%
- % Feeding Suppression (ICV dose 2 micrograms): 70%
- % Feeding Suppression (ICV dose 5 micrograms): 71%
- % Feeding Suppression (ICV dose 10 micrograms): 59%
- % Feeding Suppression (ICV dose 20 micrograms): 78%
- suppression of milk consumption (statistical significance, in words) (intra-cerebroventricular injection in phosphate buffered saline, over the dose range tested for the substance): statistically significant suppression of milk consumption
